Data published in patent publication US8962795B2, “Factor H binding peptides and uses thereof” (The Trustees of the University of Pennsylvania, priority 2010, dated 2015).
Positions of bridges follow the written chain, without caps; N, C: chain ends. No end group written: not given here.

Tests used:
Sheep erythrocytes = experiment: Hemolytic assay (factor H cell-surface binding); format: cell-based; details: for effect on hemolytic assay: peptide expressed as fusion protein with phage PIII domain, not shown
Protocol: (§1) To determine whether the binding of the 5C6 peptide interferes with the regulatory activity and cell-surface binding capacity of factor H, we performed factor H cofactor activity assays using purified C3b, factor H and factor I, as well as hemolytic assays, both which were performed in the presence of different concentrations of the 5C6 peptide. The hemolysis assay experiments were repeated at least three times using lepirudin plasma from different blood donors.
Hemolytic assays were performed to determine whether the peptide altered factor H cell-surface binding activity. Sheep erythrocytes (Cocalico Biological Inc., Reamstown, Pa.) were washed with VBS containing 5 mM Mg^2+/EGTA (VBS-Mg^2+/EGTA) until the supernatant was clear. The assay was titrated by lysing erythrocytes in serial dilution with water in a final volume of 300 μl. The OD405 of the supernatants was measured, and the amount of the erythrocytes yielding an OD405 of ˜1 was used in the assay. Serial dilutions of the 5C6 peptide or monoclonal antibody MH10 (which binds fH19-20 and inhibits factor H cell surface binding) with the determined amount of sheep erythrocytes and lepirudin plasma diluted 1:10 in VBS-Mg^2+/EGTA in a final volume of 300 μL were incubated at 37° C. for 1 h in a shaking water bath. After centrifugation the OD405 of the supernatants was measured, and the OD value was used to represent the cell lysis.

[1] = target: T1, factor H cofactor activity (Homo sapiens, UniProt P08603); experiment: Factor H cofactor activity assay (factor I-mediated cleavage of C3b); format: biochemical; details: for effect on cofactor assay: peptide expressed as fusion protein with phage PIII domain, not shown
T1 construct: Human factor H was purified from normal human serum (NHS) by 5-12% PEG precipitation; from tissue; host or cells: normal human serum (factor H, C3); factor I from unnamed 'other sources'
Protocol: as §1
The factor H cofactor activity assay was performed according to known methods. In brief, 1.14 μM C3b, 16 nM factor I, and 72 nM factor H were incubated with various amounts of the 5C6 peptide (0.4, 4, and 40 μM, respectively) in PBS at 37° C. for 1 hr in a final volume of 20 μl. The reaction was terminated by adding SDS-PAGE loading buffer, and the samples were analyzed by 8% SDS-PAGE under reducing conditions, followed by Coomassie blue staining.

factor H [2] = target: T2, factor H (Homo sapiens, UniProt P08603); experiment: Capture of factor H from plasma by immobilized peptide; format: binding; details: vs control peptide
T2 construct: Human factor H was purified from normal human serum (NHS) by 5-12% PEG precipitation; from tissue; host or cells: normal human serum (NHS)
Protocol: Two approaches were used to evaluate the binding of synthetic peptides to factor H. First, we used peptide-phage competition assays, in which serially diluted synthetic peptide was added to its parent phage at the step of phage binding to coated factor H. The rest of the steps were performed as described above for monoclonal phage ELISA. Second, ELISA experiments were used to evaluate the binding of factor H to the immobilized peptide. Microtiter plates were coated with streptavidin (New England Biolabs) at 10 μg/ml in PBS at 4° C. overnight, and saturated with 2% BSA in PBS. […] After 1 h of binding, the plates were washed, and bound factor H was detected with goat anti-human factor H polyclonal antibody (Quidel, San Diego, Calif.), followed by HRP-conjugated rabbit anti-goat IgG (Bio-Rad). […]
Polystyrene microtiter wells, which served as a model biomaterial, were coated overnight with streptavidin (10 μg/ml in PBS) at 4° C. […] Bound fragments of activated C3 were detected with an HRP-conjugated goat anti-human C3 polyclonal antibody (Cappel, Aurora, Ohio). In parallel, captured factor H from serum was detected with goat anti-human factor H polyclonal antibody followed by HRP-conjugated rabbit anti-goat IgG in duplicate wells as described above.

factor H [3] = target: T2, factor H; experiment: Monoclonal phage ELISA, binding of phage clones to factor H (binding area localisation); details: SCR5-18 attributed in absence of stable binding to N- or C-terminus of factor H
Protocol: (§2) Microtiter wells were coated overnight with either factor H or BSA at 5 μg/mL in PBS at 4° C., and saturated with 5% non-fat milk in PBST for 1 h. Completely separated individual phage plaques from the third round of screening were picked and amplified. Phage particles of each amplified individual phage plaque were added to both factor H- and BSA-coated wells in parallel and allowed to bind at RT for 1 h. After six washes with PBST, bound phages were detected with HRP-conjugated anti-M13 monoclonal antibody (GE Healthcare), using ABTS (Roche) for color development. Clones that bound to factor H but not to BSA were considered positive; single-stranded DNA from positive clones was prepared using an M13 kit (Qiagen, Valencia, Calif.) and sequenced by the DNA sequencing facility of the University of Pennsylvania.
(§3) To localize the binding sites on factor H of the positive clones, we further tested each clone by monoclonal phage ELISA for binding to factor H and its N- and C-terminal fragments, i.e. fH1-4 and fH19-20.

[4] = test system: AP complement activation (surface-bound activated C3); experiment: Inhibition of biomaterial-induced AP activation by immobilized peptide (surface-bound activated C3); format: biochemical, human
Protocol: Polystyrene microtiter wells, which served as a model biomaterial, were coated overnight with streptavidin (10 μg/ml in PBS) at 4° C. After washing, the biotinylated 5C6 peptide and the control peptide (10 μg/ml in PBS) were added to the wells and incubated at RT for 30 min. The wells were again washed and serially diluted lepirudin plasma in VBS-Mg^2+/EGTA was added and incubated at RT for 1 h. In some experiments intended to monitor the inhibition of AP by immobilized peptide on a HSA monolayer, the washed wells were saturated with 2% HSA in PBS for 1 h, prior to the addition of plasma. In both series of experiments, the wells were then washed, and the binding sites were saturated with 2% BSA in PBS for 1 h. Bound fragments of activated C3 were detected with an HRP-conjugated goat anti-human C3 polyclonal antibody (Cappel, Aurora, Ohio). In parallel, captured factor H from serum was detected with goat anti-human factor H polyclonal antibody followed by HRP-conjugated rabbit anti-goat IgG in duplicate wells as described above.

factor H [5] = target: T2, factor H; experiment: Factor H concentration in plasma after incubation on peptide-coated surface; details: data not shown
factor H [6] = target: T2, factor H; experiment: Peptide-phage competition assay; format: binding; details: serially diluted synthetic peptide; coated factor H
Protocol: (§4) Two approaches were used to evaluate the binding of synthetic peptides to factor H. First, we used peptide-phage competition assays, in which serially diluted synthetic peptide was added to its parent phage at the step of phage binding to coated factor H. The rest of the steps were performed as described above for monoclonal phage ELISA. Second, ELISA experiments were used to evaluate the binding of factor H to the immobilized peptide. Microtiter plates were coated with streptavidin (New England Biolabs) at 10 μg/ml in PBS at 4° C. overnight, and saturated with 2% BSA in PBS. After washing, either the biotinylated 5C6 peptide or a biotinylated control peptide (linear compstatin; IAVVQDWGHHRAT; SEQ ID NO:10) was added at 10 μg/ml and allowed to bind at RT for 30 min. The wells were washed again, and factor H serially diluted in PBS, starting with 2.5 μg/ml, was added. After 1 h of binding, the plates were washed, and bound factor H was detected with goat anti-human factor H polyclonal antibody (Quidel, San Diego, Calif.), followed by HRP-conjugated rabbit anti-goat IgG (Bio-Rad). […]

factor H [7] = target: T2, factor H; experiment: SPR, factor H on surface-bound peptide; format: binding; details: for SPR binding of factor H to immobilized peptide: biotinylated peptide on streptavidin chip, factor H 100 nM
Protocol: (§5) The binding of factor H with surface-bound 5C6 peptide was further characterized using surface plasmon resonance (SPR) on a ProteOn XPR36 instrument (Bio-Rad Inc., Hercules, Calif.) using PBST (10 mM sodium phosphate, 150 mM NaCl, 0.005% Tween 20) as running buffer. Streptavidin (50 μg/ml in 10 mM sodium acetate pH 5.0) was immobilized on a GLC sensor chip at 30° C. using amine coupling. The biotinylated 5C6 peptide and a biotinylated control peptide (linear compstatin; see above) were captured on separate streptavidin-coated channels to a density of ˜200 resonance units (RU). Purified factor H (Complement Technologies, Tyler, Tex.) or recombinant fragments fH1-4 and fH19-20 were injected at a concentration of 100 nM for 2 rain at a flow rate of 25 μl/min with a dissociation phase of 6 min. A single injection of 2 M NaCl for 30 s was used to regenerate the surface between injections. Data were processed using ProteOn Manager software by subtracting the signals from interspots and a blank streptavidin channel. In order to estimate the apparent binding affinity, a twofold dilution series of factor H (0.24-500 nM) was injected using the same protocol and fitted to various kinetic models using ProteOn Manager. In order to exclude sensor chip matrix-specific surface binding, the same experiment was repeated on Biacore 3000 instrument (GE Healthcare) using a SA chip under the same conditions as described above.

fH1-4 [8] = target: T3, fH1-4 (Homo sapiens, UniProt P08603); experiment: SPR, fH1-4 fragment on surface-bound peptide; format: binding; details: fragment 100 nM
T3 construct: made in house
Protocol: as §5, with “In order to exclude sensor chip matrix-specific surface binding, the same experiment was repeated on Biacore 3000 instrument (GE Healthcare) using a SA chip under the same conditions as described above.” left out

factor H [9] = target: T2, factor H; experiment: ELISA, binding of purified factor H to immobilized biotinylated peptide; details: biotinylated peptide captured by coated streptavidin, polyclonal antibody detection
Protocol: as §4

fH19-20 [10] = target: T4, fH19-20 (Homo sapiens, UniProt P08603); experiment: SPR, fH19-20 fragment on surface-bound peptide; format: binding; details: fragment 100 nM
T4 sequence (P08603 1107-1231): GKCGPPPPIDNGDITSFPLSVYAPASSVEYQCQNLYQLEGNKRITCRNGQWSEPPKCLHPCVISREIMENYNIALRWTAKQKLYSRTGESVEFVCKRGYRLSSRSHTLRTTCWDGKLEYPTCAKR
Protocol: as §5, with “In order to exclude sensor chip matrix-specific surface binding, the same experiment was repeated on Biacore 3000 instrument (GE Healthcare) using a SA chip under the same conditions as described above.” left out

fH19-20 [11] = target: T4, fH19-20; experiment: Monoclonal phage ELISA, binding of phage clones to fH19-20
Protocol: as §2, §3

fH1-4 [12] = target: T3, fH1-4; experiment: Monoclonal phage ELISA, binding of phage clones to fH1-4
Protocol: as §2, §3

T2 sequence (P08603 19-1231): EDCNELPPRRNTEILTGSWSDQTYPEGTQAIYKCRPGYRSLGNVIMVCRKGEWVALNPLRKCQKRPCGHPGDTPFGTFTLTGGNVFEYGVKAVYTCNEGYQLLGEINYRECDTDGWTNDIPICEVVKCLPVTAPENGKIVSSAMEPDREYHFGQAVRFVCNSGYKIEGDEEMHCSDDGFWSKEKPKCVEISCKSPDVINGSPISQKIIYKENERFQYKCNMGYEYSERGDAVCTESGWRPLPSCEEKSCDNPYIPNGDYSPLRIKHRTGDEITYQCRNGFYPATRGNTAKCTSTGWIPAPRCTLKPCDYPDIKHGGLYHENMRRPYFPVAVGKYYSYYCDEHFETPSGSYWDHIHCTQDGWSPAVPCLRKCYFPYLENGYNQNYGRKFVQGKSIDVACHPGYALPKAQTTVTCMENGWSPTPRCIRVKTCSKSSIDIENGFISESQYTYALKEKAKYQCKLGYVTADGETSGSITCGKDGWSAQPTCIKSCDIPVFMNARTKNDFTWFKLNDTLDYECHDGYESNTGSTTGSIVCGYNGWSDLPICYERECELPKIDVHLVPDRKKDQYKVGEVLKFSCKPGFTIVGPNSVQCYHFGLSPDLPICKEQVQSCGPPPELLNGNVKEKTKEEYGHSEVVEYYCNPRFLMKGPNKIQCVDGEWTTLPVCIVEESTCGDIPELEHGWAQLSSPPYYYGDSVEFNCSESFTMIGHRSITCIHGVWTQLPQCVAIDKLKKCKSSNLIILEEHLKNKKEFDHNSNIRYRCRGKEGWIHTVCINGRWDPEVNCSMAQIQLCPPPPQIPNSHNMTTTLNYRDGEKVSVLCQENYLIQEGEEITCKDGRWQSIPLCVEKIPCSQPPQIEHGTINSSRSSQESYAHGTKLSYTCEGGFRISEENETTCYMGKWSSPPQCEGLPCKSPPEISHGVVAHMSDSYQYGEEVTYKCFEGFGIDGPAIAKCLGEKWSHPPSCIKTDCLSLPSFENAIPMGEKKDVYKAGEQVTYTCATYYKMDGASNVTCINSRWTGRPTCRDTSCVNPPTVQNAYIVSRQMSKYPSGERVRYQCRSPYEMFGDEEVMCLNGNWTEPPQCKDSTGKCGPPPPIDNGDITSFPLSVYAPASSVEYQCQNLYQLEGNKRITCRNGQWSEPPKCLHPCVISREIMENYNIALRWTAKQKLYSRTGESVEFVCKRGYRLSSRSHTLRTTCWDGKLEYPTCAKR
T1 sequence (P08603 19-1231): as above
T3 sequence (P08603 19-264): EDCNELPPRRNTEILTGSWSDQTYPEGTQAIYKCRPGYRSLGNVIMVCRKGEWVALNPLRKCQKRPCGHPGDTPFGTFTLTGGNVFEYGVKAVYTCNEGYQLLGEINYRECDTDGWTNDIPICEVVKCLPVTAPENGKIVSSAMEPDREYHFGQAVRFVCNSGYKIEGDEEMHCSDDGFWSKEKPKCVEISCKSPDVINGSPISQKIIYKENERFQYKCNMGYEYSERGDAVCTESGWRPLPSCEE

For “ASSSRCTYDHWCSH (disulfide 6-12 (inferred); not fully specified; also: biotinylated) [5C6, used biotinylated when immobilized]”, the “lysis of sheep erythrocytes” value (Sheep erythrocytes; 10-fold diluted lepirudin plasma, peptide up to 40 μM) was “No lysis”, the “effect on hemolytic assay” value (Sheep erythrocytes) was “no such effect” and the “effect on cofactor assay” value [1] was “no such effect”. The “effect on factor H cofactor activity” value ([1]; synthetic peptide up to 40 μM, 550-fold excess over factor H (72 nM)) was “did not inhibit”, the “factor H capture from plasma by immobilized peptide” value (factor H [2]; polystyrene with HSA monolayer) was “pronounced factor H capture” and the “factor H capture from plasma by immobilized peptide” value (factor H [2]; polystyrene without HSA pre-saturation) was “captured more factor H”. The “Binding area on factor H” value (factor H [3]) was “SCR5-18”, the “complement activation on peptide-immobilized surface” value ([4]; polystyrene with HSA monolayer, lepirudin plasma in VBS-Mg2+/EGTA, vs control peptide) was “substantially inhibited” and the “complement activation on peptide-immobilized surface” value ([4]; polystyrene without HSA pre-saturation, plasma) was “strongly inhibited”. The “factor H concentration in plasma incubated on peptide-coated surface” value (factor H [5]) was “no significant decline”, the “inhibition of binding of the other class 3 phages to factor H by 5C6 peptide” value (factor H [6]) was “strongly inhibited” and the “inhibition of parent phage binding to factor H by synthetic peptide” value (factor H [6]) was “inhibited its parent phages from binding to factor H in a dose-dependent manner”. The “SPR binding of factor H to immobilized peptide” value (factor H [7]) was “high binding activity and stability”, the “SPR apparent binding affinity for factor H” value (factor H [7]; dilution series of factor H 0.24-500 nM, deviation from single-site model, apparent) was “concentration-dependent binding with high affinity” and the “SPR binding of fH1-4 fragment to immobilized peptide” value (fH1-4 [8]) was “no binding”. For the same sequence, the “binding signal for factor H on immobilized peptide (ELISA)” value (factor H [9]) was “strong binding signal” and the “SPR binding of fH19-20 fragment to immobilized peptide” value (fH19-20 [10]) was “a significant SPR response could also be detected for the fH19-20 fragment, this interaction was not stable”.
For ASSFKCDYSHWCLH [5E10], the “Binding area on factor H” value (factor H [3]) was “SCR5-18”.
With ASSGMCFTKKTVLC [4A1] the “binding of phage clone to fH19-20” value (fH19-20 [11]) was “bind to the C-terminal two SCR of factor H”, the “effect on hemolytic assay” value (Sheep erythrocytes) was “affected” and the “Binding area on factor H” value (factor H [3]) was “SCR19-20”.
For ASSNVCSYSYWCAH [5G11], the “Binding area on factor H” value (factor H [3]) was “SCR5-18”.
With ASSYDVGYSHDCRF [5-2C6] the “effect on cofactor assay” value [1] was “affected”, the “Binding area on factor H” value (factor H [3]) was “SCR1-4” and the “binding of phage clone to fH1-4” value (fH1-4 [12]) was “bound to the N-terminal regulatory region of factor H”.
With ASPSWCSYSHWCRH [5D1] the “Binding area on factor H” value (factor H [3]) was “SCR5-18”.
In the case of “IAVVQDWGHHRAT [Control Peptide (LC), reference compound]”, the “SPR binding of factor H to immobilized peptide” value (factor H [7]) is reported as “no significant binding” and the “binding signal for factor H on immobilized peptide (ELISA)” value (factor H [9]) is reported as “not”.
For ASSCMYSYWCTH [5-2B2], the “Binding area on factor H” value (factor H [3]) was “SCR5-18”.
